Measured values reported in patent US20240262869A1.
Values joined by “and” are separate entries in the source; they are usually repeats but may differ in a detail not shown here. Equal entries are not always repeated. Where two headings read alike, the source gives them in different places.

Experiments:
[1] = molecular target: neutralizing antibody CR3022
[2] = molecular target: neutralizing antibody CR3022; remark: listed apart in the source
ACE2-hFc (human) [3] = molecular target: ACE2-hFc (human) (UniProt Q9BYF1)
ACE2-hFc (human) [4] = molecular target: ACE2-hFc (human) (UniProt Q9BYF1); remark: listed apart in the source
[5] = molecular target: neutralizing antibody CR3022; test: SPR (ProteOn XPR36), CR3022 captured on Protein G
[6] = molecular target: neutralizing antibody CR3022; remark: listed apart in the source
ACE2-hFc (human) [7] = molecular target: ACE2-hFc (human) (UniProt Q9BYF1); remark: listed apart in the source
ACE2-hFc (human) [8] = molecular target: ACE2-hFc (human) (UniProt Q9BYF1); remark: listed apart in the source
[9] = molecular target: neutralizing antibody CR3022; test: SPR, immobilized CR3022
[10] = molecular target: neutralizing antibody CR3022; remark: listed apart in the source
[11] = molecular target: neutralizing antibody CR3022; test: SPR, CR3022 captured on Protein G, tagless pInCV02R as analyte (FIG. 11D)

Sequence of ACE2-hFc (human) (Q9BYF1 18-740 limits assumed): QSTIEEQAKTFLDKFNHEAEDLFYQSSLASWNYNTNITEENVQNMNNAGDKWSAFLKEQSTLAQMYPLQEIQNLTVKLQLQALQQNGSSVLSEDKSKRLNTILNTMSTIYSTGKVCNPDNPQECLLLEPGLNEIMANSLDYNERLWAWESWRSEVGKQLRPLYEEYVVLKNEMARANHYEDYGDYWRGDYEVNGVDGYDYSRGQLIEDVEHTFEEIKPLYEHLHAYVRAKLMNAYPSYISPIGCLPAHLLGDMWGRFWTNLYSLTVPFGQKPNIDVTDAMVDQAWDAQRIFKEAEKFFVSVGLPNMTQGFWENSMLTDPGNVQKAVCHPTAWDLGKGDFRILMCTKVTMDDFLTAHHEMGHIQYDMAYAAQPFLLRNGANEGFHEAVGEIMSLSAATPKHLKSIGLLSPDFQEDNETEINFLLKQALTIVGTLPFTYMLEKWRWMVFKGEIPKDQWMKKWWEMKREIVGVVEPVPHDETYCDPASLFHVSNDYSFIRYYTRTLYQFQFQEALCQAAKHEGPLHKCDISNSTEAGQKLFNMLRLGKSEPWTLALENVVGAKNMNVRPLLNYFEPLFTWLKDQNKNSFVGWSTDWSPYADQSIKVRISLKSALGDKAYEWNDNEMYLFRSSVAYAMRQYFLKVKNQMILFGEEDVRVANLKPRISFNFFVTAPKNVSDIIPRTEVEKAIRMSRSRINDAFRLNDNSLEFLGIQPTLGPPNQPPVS

## MsDPS2-SpyTag-mRBD-SpyCatcher conjugate
[1]
  kon: > 1e+06 M⁻¹ s⁻¹
[2]
  kon: 4.2e+06 M⁻¹ s⁻¹

## MsDPS2-SpyTag-mRBD-SpyCatcher conjugate (other; other documents disagree on this pair)
ACE2-hFc (human) [3]
  kon: > 1e+06 M⁻¹ s⁻¹
ACE2-hFc (human) [4]
  kon: 2.3e+06 M⁻¹ s⁻¹

## mInCV01R (SARS CoV-2 RBD) having EIS at the N-terminal (from UniProt P0DTC2 331-532) (ligand)
[5]
  Kd: 1.3 nM

## mInCV21R (SARS CoV-2 hCMP-RBD) having EIS at the N-terminal (ligand)
[6]
  Kd: < 1 nM
[2]
  kon: 310000 M⁻¹ s⁻¹

## mInCV21R (SARS CoV-2 hCMP-RBD) having EIS at the N-terminal (ligand; other documents disagree on this pair)
ACE2-hFc (human) [7]
  Kd: < 1 nM
ACE2-hFc (human) [8]
  Kd: 0.21 nM
  koff: 8.2e-05 s⁻¹
  kon: 400000 M⁻¹ s⁻¹
ACE2-hFc (human) [4]
  kon: 200000 M⁻¹ s⁻¹

## mInCV26R (SARS CoV-2 RBD with hCMP at the C-terminal and EIS at the N-terminal) (ligand)
[2]
  kon: 480000 M⁻¹ s⁻¹

## mInCV26R (SARS CoV-2 RBD with hCMP at the C-terminal and EIS at the N-terminal) (ligand; other documents disagree on this pair)
ACE2-hFc (human) [4]
  kon: 360000 M⁻¹ s⁻¹

## mInCV29R (SARS CoV-2 RBD with GlyIZ at C-terminal and EIS at the N-terminal) (ligand)
[2]
  Kd: 4.8 nM
  koff: 0.00097 s⁻¹
  kon: 200000 M⁻¹ s⁻¹
[9]
  Kd: 3 nM and 5 nM

## mInCV29R (SARS CoV-2 RBD with GlyIZ at C-terminal and EIS at the N-terminal) (ligand; other documents disagree on this pair)
ACE2-hFc (human) [4]
  Kd: 3 nM
  koff: 0.0004 s⁻¹
  kon: 130000 M⁻¹ s⁻¹

## pInCV02R (SARS CoV-2 RBD N-1 (332-532)) (from UniProt P0DTC2 332-532) (ligand)
[10]
  Kd: 29.5 nM
[11]
  Kd: 30 nM
